What was measured:
[1] = tested on: RP-HPLC KG-1 membrane fraction; assay: Western blot with Y1 on SDS-PAGE reducing gels, KG-1 membrane fraction after enzyme treatment; type: binding, human; conditions: O-Sialo glycoprotein endopeptidase, 30′ at 37° C.
Source text: (§1) Y1 ligand was further characterized using enzymatic treatments with proteases, glycanases, and […]; Western blotting with Y1, anti-CD42 antibodies, anti-CD162 antibodies and 181, immunoprecipitation using Y1 and anti-CD162 antibodies; FACS analysis using Y1 anti-CD162 antibodies; and sequencing.
(§2) The table below summarizes the biochemical experiments preformed to characterize and localize the Y1 binding site on KG-1 cells.
(§3) The nitrocellulose membrane was blocked using 5% skim milk for one hour at room temperature. The membrane was then washed 3 times for 5 minutes each with 0.05% Tween 20 in PBS at room temperature. The membrane was incubated with 5 μg/ml Y1-biotin (or 181-biotin) in 2% skim milk in PBS for one hour at room temperature. The membrane was then washed 3 times for 5 minutes each with cold 0.05% Tween 20 in PBS in the cold room (about 4 to about 10° C.). The membrane was then incubated in the cold room with a 1:1000 dilution of SAV-HRP (streptavidin-HRP) (at a final concentration of […]) in 2% skim milk, 0.05% Tween. The dilution was carried out at room temperature (about 25° C.), then the diluted SAV-HRP was cooled on ice for 10-15 minutes before use. The incubation was carried out for 1 hour with gentle shaking. After the incubation with SAV-HRP, the membrane was washed, as above. […]

Glycocalicin (GC) = target: T1, Glycocalicin (GC) (Homo sapiens, UniProt P07359); assay: Western blot with Y1 on SDS-PAGE reducing gels, glycocalicin after enzyme treatment; type: binding; conditions: O-Sialo glycoprotein endopeptidase, 30′ at 37° C.
T1 construct: glycocalicin (soluble, extracellular fragment of GPIbα); from tissue; host or cells: human platelets
Source text: as §1, §2, §3

Heparin - BSA = assay: Western blot with Y1 on SDS-PAGE reducing gels, heparin-BSA after aryl-sulfatase; type: binding; conditions: 18 hr at 22° C.
Source text: as §1, §2, §3

Leukemia Cells = assay: FACS of leukemia samples: anti-CD162 versus Y1; type: binding, human; conditions: 12 patient samples
Procedure: Analysis of binding of scFv Y1 antibodies and anti-CD162 antibodies to diseased cells also illustrates that scFv Y1 has binding characteristics different from those of anti-CD162 antibodies. […] (Table F). Y1 binds to the leukemic cells in 10 of 12 samples. In contrast, anti-CD162 bound only 5 out of 12 samples. […] Thus, it may be concluded that, in leukemic cells, scFv Y1 binds to a ligand other than that recognized by anti-CD162.
Samples provided from hospitals. Patients sample 30 μl/tube. Add 5 μl /tube of CD33-APC (for AML) or CD19-APC (for B-CLL) or CD38-APC (for Multiple Myeloma). Add 5 μl/tube of CD45-PerCp and 5 μl of scFv-Y1 or control scFv-N31 or CD162-PE (KPL1). Incubate tubes 30 minutes at 4° C. with low shaking. Wash by adding 2 ml PBS and spin 5 minutes at 1200 rpm. Discard supernatant.
For a one step assay continue with the lysis step:
Add 500 μl BD Lysine solution diluted 1:10 with ddH2O (300 μl to patient sample). Vortex at high speed and incubate 12 minutes at 4° C. Wash as above. Discard supernatant. And add 500 μl PBS. The samples are read in the FACS using blood sample acquisition setup according to international standards.
For two or more assays: working buffer is PBS+1% BSA+0.05% sodium azide. Incubations and wash as above.
Lysis of the red blood cells is the final step in the assay, followed by resuspension with 500 μl PBS.

[2] = target: T2, natural human platelet derived glycocalicin (Homo sapiens, UniProt P07359); assay: Western blot on natural platelet glycocalicin; type: binding; conditions: semi-purified human platelet derived glycocalicin
T2 construct: glycocalicin (soluble, extracellular fragment of GPIbα); from tissue; host or cells: human platelets
Procedure: The DNA fragment encoding for glycocalicin (GC, amino acid 1 to amino acid 493 of GPIbα) was cloned into an IPTG inducible prokaryotic vector cassette. E. coli (BL21 DE3) cells harboring the newly constructed plasmid were grown at 37° C. to O.D. 0.7-0.8, than at 37° C. for 3 hours for in the presence of IPTG for induction.
SDS-polyacrylamide gel loaded either with semi-purified human platelet derived glycocalicin (“GC”) or with E. coli cell lysates (“total”) derived from induced and non-induced cells were analyzed. Western blot analysis was performed with biotinylated Y1-scFv, polyclonal rabbit anti-human glycocalicin antibody, commercially available mouse anti-human CD42 monoclonal antibody (SZ2 Immunotech, PM640 Serotec, HIP1 Pharmigen, AN51 DAKO), and polyclonal antibody against the N-terminus of GPIbα (Sc-7071, Santa Cruz).

B1: Y1 scFv: fully human scFv clone binding platelets and AML cells; SEQ ID NO:25, heavy chain CDR3 SEQ ID NO:8 (protein, listed as Homo sapiens)
scFv: MKYLLPTAAAGLLLLAAQPAMAEVQLVESGGGVVRPGGSLRLSCAASGFTFDDYGMSWVRQAPGKGLEWVSGINWNGGSTGYADSVKGRFTISRDNAKNSLYLQMNSLRAEDTAVYYCARMRAPVIWGQGTLVTVSRGGGGSGGGGSGGGGSSELTQDPAVSVALGQTVRITCQGDSLRSYYASWYQQKPGQAPVLVIYGKNNRPSGIPDRFSGSSSGNTASLTITGAQAEDEADYYCNSRDSSGNHVVFGGGTKLTVLGAAAEQKLISEEDLNGAA
- Reactivity with Y1 [1]: Reactivity
- Reactivity with Y1 (Glycocalicin (GC)): Enhanced
- Reactivity with Y1 (Heparin - BSA): Binds to
- samples in which the antibody binds the leukemic cells (Leukemia Cells): 10 of 12
- recognition in Western blot [2]: recognized

Reference: patent US20040001839A1, “Multimers - isolated molecules comprising epitopes containing sulfated moieties, antibodies to such epitopes, and uses thereof” (priority 2000, published 2004)
